Biological target: Human factor D (human, UniProt P00746 26-253)
Experiment: cell-based or functional assay

Sequence of Human factor D (P00746 26-253 limits assumed): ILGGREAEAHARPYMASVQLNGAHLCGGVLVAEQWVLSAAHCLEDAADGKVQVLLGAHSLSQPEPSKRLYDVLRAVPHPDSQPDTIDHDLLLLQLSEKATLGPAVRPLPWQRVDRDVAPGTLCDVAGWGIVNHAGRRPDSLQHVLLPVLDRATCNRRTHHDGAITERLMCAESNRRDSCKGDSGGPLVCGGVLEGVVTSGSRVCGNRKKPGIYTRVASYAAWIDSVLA

B1: Recombinant polypeptide from Example 6 (Placobdella papillifera alternative complement pathway inhibitor, mature polypeptide of SEQ ID NO: 16) (other)
chain: VEFQDCKKSSDCETLELRCNKNTSKCECRNQVCPRACPDGKYKLDEYGCKRCLCQGCNEAQCRKLCWYGFTTDENGCESYCKCNTKETACKNVLCSDSYQCDPESGNCVAVIPGKEHDYYSYNDDDDEDK
modifications: No modification is reported for the recombinant product. paragraph 50 mentions only in general a possible N-glycosylation at Asn22 and sulphation or phosphation of Tyr119, Tyr120 and Tyr122. Disulphide bonds between cysteines are likely but not mapped.
  IC50 of inhibition of CVF-induced C3a generation in human serum (C3a ELISA): 0.138 µg/mL
